Source: article PMC8546688, “Streptococcus suis MsmK: Novel Cell Division Protein Interacting with FtsZ and Maintaining Cell Shape” (mSphere, 2021)

B1: N_MsmK (amino acids 1 to 234), His-tagged (domain or fragment, Streptococcus suis, UniProt A0A0H3N1P0 1-234, looked up)
chain: MVQLNLKNIYKKYPNSEHYSVEDFNLDIKDKEFIVFVGPSGCGKSTTLRMIAGLEDITEGEAYIDGVLMNDVAPKDRDIAMVFQNYALYPHMTVFDNMAFGLKLRKYSKDEIKKRVEEAAQILGLTEFLERKPADLSGGQRQRVAMGRAIVRDAKVFLMDEPLSNLDAKLRVSMRTEIAKIHRRIGATTIYVTHDQTEAMTLADRIVIMSATKNPAGTGTIGRIEQIGSPEELY
notes: MsmK of Streptococcus suis, N-terminal domain, aa 1 to 234 of 378; also called N terminus of MsmK; N-terminal domain of MsmK; source: expressed and purified
B2: His-tagged MsmK (multiple sugar metabolism protein K), full length (enzyme, Streptococcus suis, UniProt A0A0H3N1P0 1-376, looked up)
chain: MVQLNLKNIYKKYPNSEHYSVEDFNLDIKDKEFIVFVGPSGCGKSTTLRMIAGLEDITEGEAYIDGVLMNDVAPKDRDIAMVFQNYALYPHMTVFDNMAFGLKLRKYSKDEIKKRVEEAAQILGLTEFLERKPADLSGGQRQRVAMGRAIVRDAKVFLMDEPLSNLDAKLRVSMRTEIAKIHRRIGATTIYVTHDQTEAMTLADRIVIMSATKNPAGTGTIGRIEQIGSPEELYNRPVNKFVASFIGSPAMNFFTVTLQDGVLVGDGFKVELPEGRRKHLEEKGYNGKSFTLGIRPEDIKASQLELDTYPSSIVEAEVVVSELLGAETMLYSKVGSTEFVSRVDARDYHNPGDKVRLTFNLNKAHFFDDETSKAIV
notes: MsmK, ATPase of the ABC-type carbohydrate transport system of Streptococcus suis; 378 amino acid residues, open reading frame of 1,137 bp; also called full-length MsmK; source: expressed and purified
B3: His-tagged FtsZ (filamentous temperature-sensitive protein Z) (natural protein, Streptococcus suis, UniProt A0A0H3MXZ7 1-409, looked up)
chain: MAFSFEAAASHGAVIKVIGVGGGGGNAINRMIEEGVAGVEFIAANTDVQALSSSKAETVIQLGPKLTRGLGAGGQPEVGRKAAEESEEALTNVLTGADMVFITAGMGGGSGTGAAPVIARIAKNLGALTVAVVTRPFGFEGNKRGNFAIEGIEGLREQVDTLLIISNNNLLEIVDKKTPLLEALSEADNVLRQGVQGITDLITNPGLINLDFADVKTVMENKGNALMGIGIGTGEDRVIEAARKAIYSPLLETTIDGAEDVIVNVTGGYDMTLTEAEDASEIVNQAAGQGVNIWLGTSIDETMKDEIRVTVVATGVRQDTADKPARHRTEAVSPRPSHRFDHSVASAPTRGAAQQTEAPKASAFGEWDLRRENLIRPTDTEPTSTVSVEKFTMDQDEDELDTPPFFRNR
notes: FtsZ, tubulin-like cell division protein of Streptococcus suis; The His tag is named for the SPR; also called His-FtsZ; source: purified

How the values were obtained:
[1] = biological target: B3; assay: SPR; His-tagged FtsZ immobilized onto sensor chips as the ligand; MsmK constructs in concentration series as analytes; buffer without protein as negative control; conditions: both partners purified
[2] = biological target: the molecule itself; assay: transmission electron microscopy; FtsZ (0.6 μM) incubated with 2 mM GTP and/or 1 mM ATP in buffer P, 10 min at 37°C

| Binder | Kd [1] [nM] | koff [1] [s⁻¹] | kon [1] [M⁻¹ s⁻¹] | binding result [2] |
| --- | --- | --- | --- | --- |
| B1 | 332 | 0.000332 | 1000 | – |
| B2 | ≤ 10 | ≤ 1e-05 | 1000 | – |
| B3 | – | – | – | binds |
